# Measured values as given in PMC9482650, “Quantitative fragmentomics allow affinity mapping of interactomes” (Nature Communications, 2022).
# T1: USH1C_2, Q9Y6N9
# T1 sequence (Q9Y6N9 206-303, limits assumed, looked up): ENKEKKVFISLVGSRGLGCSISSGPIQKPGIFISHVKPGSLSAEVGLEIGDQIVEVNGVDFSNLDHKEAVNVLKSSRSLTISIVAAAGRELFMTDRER
# T2: PDZD4, Q76G19
# T2 sequence (Q76G19 125-224, limits assumed, looked up): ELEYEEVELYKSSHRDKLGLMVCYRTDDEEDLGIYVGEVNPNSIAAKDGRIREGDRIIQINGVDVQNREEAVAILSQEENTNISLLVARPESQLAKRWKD
# T3: USH1C_1, Q9Y6N9
# T3 sequence (Q9Y6N9 82-179, limits assumed, looked up): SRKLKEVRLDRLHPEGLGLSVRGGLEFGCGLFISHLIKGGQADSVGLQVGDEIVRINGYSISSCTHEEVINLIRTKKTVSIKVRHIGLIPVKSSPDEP
# T4: GRIP1_1, Q9Y3R0
# T4 sequence (Q9Y3R0 48-146, limits assumed, looked up): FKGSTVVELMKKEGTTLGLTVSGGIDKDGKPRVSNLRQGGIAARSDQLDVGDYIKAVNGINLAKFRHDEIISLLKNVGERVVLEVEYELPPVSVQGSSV
# T5: PTPN4, P29074
# T5 sequence (P29074 512-599, limits assumed, looked up): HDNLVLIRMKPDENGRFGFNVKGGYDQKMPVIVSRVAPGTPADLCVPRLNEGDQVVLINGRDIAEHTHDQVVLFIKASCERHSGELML
# T6: PTPN13_5, Q12923
# T6 sequence (Q12923 1877-1975, limits assumed, looked up): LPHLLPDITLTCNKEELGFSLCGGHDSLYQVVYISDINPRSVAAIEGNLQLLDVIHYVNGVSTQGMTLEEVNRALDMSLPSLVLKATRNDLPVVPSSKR
# T7: PARD6B, Q9BYG5
# T7 sequence (Q9BYG5 152-260, limits assumed, looked up): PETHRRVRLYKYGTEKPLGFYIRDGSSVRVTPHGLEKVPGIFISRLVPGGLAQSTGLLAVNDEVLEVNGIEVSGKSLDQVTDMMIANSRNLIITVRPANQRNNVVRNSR
# T8: CNKSR1, Q969H4
# T8 sequence (Q969H4 191-295, limits assumed, looked up): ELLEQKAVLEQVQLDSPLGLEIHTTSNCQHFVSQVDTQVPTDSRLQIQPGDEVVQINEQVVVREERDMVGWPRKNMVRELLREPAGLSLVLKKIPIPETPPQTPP
# T9: PDZD11, Q5EBL8
# T9 sequence (Q5EBL8 42-139, limits assumed, looked up): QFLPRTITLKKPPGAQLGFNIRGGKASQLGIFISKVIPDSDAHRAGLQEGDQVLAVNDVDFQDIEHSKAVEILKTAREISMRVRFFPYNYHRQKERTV
# T10: USH1C_3, Q9Y6N9
# T10 sequence (Q9Y6N9 447-547, limits assumed, looked up): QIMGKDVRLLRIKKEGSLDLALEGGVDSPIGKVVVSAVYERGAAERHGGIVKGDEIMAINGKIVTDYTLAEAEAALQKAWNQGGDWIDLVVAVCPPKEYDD
# T11: PDZD2_3, O15018
# T11 sequence (O15018 581-682, limits assumed, looked up): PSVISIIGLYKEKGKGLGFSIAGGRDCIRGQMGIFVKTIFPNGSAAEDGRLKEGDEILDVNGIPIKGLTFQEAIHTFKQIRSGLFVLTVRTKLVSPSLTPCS
# T12: NHERF3_2, Q5T2W1
# T12 sequence (Q5T2W1 129-225, limits assumed, looked up): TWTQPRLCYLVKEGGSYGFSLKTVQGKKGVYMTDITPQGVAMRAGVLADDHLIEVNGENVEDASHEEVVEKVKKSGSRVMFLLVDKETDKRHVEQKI
# T13: SYNPO2L, Q9H987
# T13 sequence (Q9H987 1-98, limits assumed, looked up): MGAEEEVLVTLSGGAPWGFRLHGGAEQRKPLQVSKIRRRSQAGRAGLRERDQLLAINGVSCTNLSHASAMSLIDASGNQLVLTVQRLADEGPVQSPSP
# T14: PDZD7_2, Q9H5P4
# T14 sequence (Q9H5P4 205-303, limits assumed, looked up): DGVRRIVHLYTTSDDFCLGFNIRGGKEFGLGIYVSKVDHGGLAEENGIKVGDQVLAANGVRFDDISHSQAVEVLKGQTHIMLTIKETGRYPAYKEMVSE
# T15: SIPA1L3, O60292
# T15 sequence (O60292 961-1052, limits assumed, looked up): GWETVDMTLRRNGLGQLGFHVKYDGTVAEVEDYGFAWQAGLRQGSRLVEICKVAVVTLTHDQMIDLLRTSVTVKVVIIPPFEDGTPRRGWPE
# Biological target: T1, USH1C_2, Q9Y6N9
# Experiment: holdup assay
# Parameters: key: below the threshold = too weak to quantify, mostly under pKd 3.1 to 4
# Settings: plain residues with an end cap or a label only (N-terminal biotin on a linker: ttds)
row,Binder,pKd
1,"QRQARSETLV [HPV59-E6, Q81964]",below the threshold
2,"SSLQSLETSV [ATP2B4, P23634]",below the threshold

# Biological target: T2, PDZD4, Q76G19
# Experiment: holdup assay
# Parameters: key: below the threshold = too weak to quantify, mostly under pKd 3.1 to 4
# Settings: plain residues with an end cap or a label only (N-terminal biotin on a linker: ttds)
row,Binder,pKd
1,"QRQARSETLV [HPV59-E6, Q81964]",below the threshold
2,"SSLQSLETSV [ATP2B4, P23634]",below the threshold

# Biological target: T3, USH1C_1, Q9Y6N9
# Experiment: holdup assay
# Parameters: key: below the threshold = too weak to quantify, mostly under pKd 3.1 to 4
# Settings: plain residues with an end cap or a label only (N-terminal biotin on a linker: ttds)
row,Binder,pKd
1,"QRQARSETLV [HPV59-E6, Q81964]",below the threshold
2,"SSLQSLETSV [ATP2B4, P23634]",below the threshold

# Biological target: T4, GRIP1_1, Q9Y3R0
# Experiment: holdup assay
# Parameters: key: below the threshold = too weak to quantify, mostly under pKd 3.1 to 4
# Settings: plain residues with an end cap or a label only (N-terminal biotin on a linker: ttds)
row,Binder,pKd
1,"QRQARSETLV [HPV59-E6, Q81964]",below the threshold
2,"SSLQSLETSV [ATP2B4, P23634]",below the threshold

# Biological target: RIMS1, Q86UR5
# Sequence (Q86UR5 584-692): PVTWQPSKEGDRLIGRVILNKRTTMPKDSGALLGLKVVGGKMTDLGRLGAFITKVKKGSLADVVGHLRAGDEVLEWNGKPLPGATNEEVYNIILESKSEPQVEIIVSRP
# Experiment: holdup assay
# Parameters: key: below the threshold = too weak to quantify, mostly under pKd 3.1 to 4
# Settings: plain residues with an end cap or a label only (N-terminal biotin on a linker: ttds)
row,Binder,pKd
1,"QRQARSETLV [HPV59-E6, Q81964]",below the threshold
2,"SSLQSLETSV [ATP2B4, P23634]",below the threshold

# Biological target: T5, PTPN4, P29074
# Experiment: holdup assay
# Parameters: key: below the threshold = too weak to quantify, mostly under pKd 3.1 to 4
# Settings: plain residues with an end cap or a label only (N-terminal biotin on a linker: ttds)
row,Binder,pKd
1,"QRQARSETLV [HPV59-E6, Q81964]",below the threshold
2,"SSLQSLETSV [ATP2B4, P23634]",4.88

# Biological target: IL16_2, Q14005
# Sequence (Q14005 350-450): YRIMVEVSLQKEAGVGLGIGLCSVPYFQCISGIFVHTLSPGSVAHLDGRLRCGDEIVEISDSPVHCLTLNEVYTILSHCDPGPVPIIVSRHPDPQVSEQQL
# Experiment: holdup assay
# Parameters: key: below the threshold = too weak to quantify, mostly under pKd 3.1 to 4
# Settings: plain residues with an end cap or a label only (N-terminal biotin on a linker: ttds)
row,Binder,pKd
1,"QRQARSETLV [HPV59-E6, Q81964]",below the threshold
2,"SSLQSLETSV [ATP2B4, P23634]",below the threshold

# Biological target: PDLIM4, P50479
# Sequence (P50479 1-83): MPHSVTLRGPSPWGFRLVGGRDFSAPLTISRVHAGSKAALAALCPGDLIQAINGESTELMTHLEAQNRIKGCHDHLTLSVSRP
# Experiment: holdup assay
# Parameters: key: below the threshold = too weak to quantify, mostly under pKd 3.1 to 4
# Settings: plain residues with an end cap or a label only (N-terminal biotin on a linker: ttds)
row,Binder,pKd
1,"QRQARSETLV [HPV59-E6, Q81964]",below the threshold
2,"SSLQSLETSV [ATP2B4, P23634]",below the threshold

# Biological target: T6, PTPN13_5, Q12923
# Experiment: holdup assay
# Parameters: key: below the threshold = too weak to quantify, mostly under pKd 3.1 to 4
# Settings: plain residues with an end cap or a label only (N-terminal biotin on a linker: ttds)
row,Binder,pKd
1,"QRQARSETLV [HPV59-E6, Q81964]",4.52
2,"SSLQSLETSV [ATP2B4, P23634]",below the threshold

# Biological target: T7, PARD6B, Q9BYG5
# Experiment: holdup assay
# Parameters: key: below the threshold = too weak to quantify, mostly under pKd 3.1 to 4
# Settings: plain residues with an end cap or a label only (N-terminal biotin on a linker: ttds)
row,Binder,pKd
1,"QRQARSETLV [HPV59-E6, Q81964]",below the threshold
2,"SSLQSLETSV [ATP2B4, P23634]",below the threshold

# Biological target: T8, CNKSR1, Q969H4
# Experiment: holdup assay
# Parameters: key: below the threshold = too weak to quantify, mostly under pKd 3.1 to 4
# Settings: plain residues with an end cap or a label only (N-terminal biotin on a linker: ttds)
row,Binder,pKd
1,"QRQARSETLV [HPV59-E6, Q81964]",below the threshold
2,"SSLQSLETSV [ATP2B4, P23634]",below the threshold

# Biological target: T9, PDZD11, Q5EBL8
# Experiment: holdup assay
# Parameters: key: below the threshold = too weak to quantify, mostly under pKd 3.1 to 4
# Settings: plain residues with an end cap or a label only (N-terminal biotin on a linker: ttds)
row,Binder,pKd
1,"QRQARSETLV [HPV59-E6, Q81964]",below the threshold
2,"SSLQSLETSV [ATP2B4, P23634]",below the threshold

# Biological target: T10, USH1C_3, Q9Y6N9
# Experiment: holdup assay
# Parameters: key: below the threshold = too weak to quantify, mostly under pKd 3.1 to 4
# Settings: plain residues with an end cap or a label only (N-terminal biotin on a linker: ttds)
row,Binder,pKd
1,"QRQARSETLV [HPV59-E6, Q81964]",below the threshold
2,"SSLQSLETSV [ATP2B4, P23634]",below the threshold

# Biological target: PARD3B_3, Q8TEW8
# Sequence (Q8TEW8 490-594): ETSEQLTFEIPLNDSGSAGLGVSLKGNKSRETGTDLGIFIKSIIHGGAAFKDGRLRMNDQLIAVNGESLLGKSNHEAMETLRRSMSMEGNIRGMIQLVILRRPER
# Experiment: holdup assay
# Parameters: key: below the threshold = too weak to quantify, mostly under pKd 3.1 to 4
# Settings: plain residues with an end cap or a label only (N-terminal biotin on a linker: ttds)
row,Binder,pKd
1,"QRQARSETLV [HPV59-E6, Q81964]",below the threshold
2,"SSLQSLETSV [ATP2B4, P23634]",below the threshold

# Biological target: RIMS2, Q9UQ26
# Sequence (Q9UQ26 637-758): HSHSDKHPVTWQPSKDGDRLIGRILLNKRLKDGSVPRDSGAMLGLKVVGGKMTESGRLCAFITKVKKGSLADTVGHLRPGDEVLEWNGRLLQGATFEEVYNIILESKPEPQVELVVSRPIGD
# Experiment: holdup assay
# Parameters: key: below the threshold = too weak to quantify, mostly under pKd 3.1 to 4
# Settings: plain residues with an end cap or a label only (N-terminal biotin on a linker: ttds)
row,Binder,pKd
1,"QRQARSETLV [HPV59-E6, Q81964]",below the threshold
2,"SSLQSLETSV [ATP2B4, P23634]",below the threshold

# Biological target: T11, PDZD2_3, O15018
# Experiment: holdup assay
# Parameters: key: below the threshold = too weak to quantify, mostly under pKd 3.1 to 4
# Settings: plain residues with an end cap or a label only (N-terminal biotin on a linker: ttds)
row,Binder,pKd
1,"QRQARSETLV [HPV59-E6, Q81964]",below the threshold
2,"SSLQSLETSV [ATP2B4, P23634]",below the threshold

# Biological target: MAGI1_6, Q96QZ7
# Sequence (Q96QZ7 1146-1238): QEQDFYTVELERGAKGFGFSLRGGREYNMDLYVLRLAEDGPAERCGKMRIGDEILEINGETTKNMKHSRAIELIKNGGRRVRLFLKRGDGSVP
# Experiment: holdup assay
# Parameters: key: below the threshold = too weak to quantify, mostly under pKd 3.1 to 4
# Settings: plain residues with an end cap or a label only (N-terminal biotin on a linker: ttds)
row,Binder,pKd
1,"QRQARSETLV [HPV59-E6, Q81964]",below the threshold
2,"SSLQSLETSV [ATP2B4, P23634]",4.49

# Biological target: PREX1_1, Q8TCU6
# Sequence (Q8TCU6 608-718): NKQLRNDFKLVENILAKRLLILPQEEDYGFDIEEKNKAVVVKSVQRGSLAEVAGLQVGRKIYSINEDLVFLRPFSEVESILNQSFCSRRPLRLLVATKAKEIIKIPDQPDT
# Experiment: holdup assay
# Parameters: key: below the threshold = too weak to quantify, mostly under pKd 3.1 to 4
# Settings: plain residues with an end cap or a label only (N-terminal biotin on a linker: ttds)
row,Binder,pKd
1,"QRQARSETLV [HPV59-E6, Q81964]",below the threshold
2,"SSLQSLETSV [ATP2B4, P23634]",below the threshold

# Biological target: T12, NHERF3_2, Q5T2W1
# Experiment: holdup assay
# Parameters: key: below the threshold = too weak to quantify, mostly under pKd 3.1 to 4
# Settings: plain residues with an end cap or a label only (N-terminal biotin on a linker: ttds)
row,Binder,pKd
1,"QRQARSETLV [HPV59-E6, Q81964]",below the threshold
2,"SSLQSLETSV [ATP2B4, P23634]",below the threshold

# Biological target: T13, SYNPO2L, Q9H987
# Experiment: holdup assay
# Parameters: key: below the threshold = too weak to quantify, mostly under pKd 3.1 to 4
# Settings: plain residues with an end cap or a label only (N-terminal biotin on a linker: ttds)
row,Binder,pKd
1,"QRQARSETLV [HPV59-E6, Q81964]",below the threshold
2,"SSLQSLETSV [ATP2B4, P23634]",below the threshold

# Biological target: T14, PDZD7_2, Q9H5P4
# Experiment: holdup assay
# Parameters: key: below the threshold = too weak to quantify, mostly under pKd 3.1 to 4
# Settings: plain residues with an end cap or a label only (N-terminal biotin on a linker: ttds)
row,Binder,pKd
1,"QRQARSETLV [HPV59-E6, Q81964]",below the threshold
2,"SSLQSLETSV [ATP2B4, P23634]",below the threshold

# Biological target: T15, SIPA1L3, O60292
# Experiment: holdup assay
# Parameters: key: below the threshold = too weak to quantify, mostly under pKd 3.1 to 4
# Settings: plain residues with an end cap or a label only (N-terminal biotin on a linker: ttds)
row,Binder,pKd
1,"QRQARSETLV [HPV59-E6, Q81964]",below the threshold
2,"SSLQSLETSV [ATP2B4, P23634]",below the threshold
